Data set [1] in a line: folding stability dG unfold (combined trypsin and chymotrypsin); higher = more stable. The method in brief:
(§1)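 K50 was inferred by Bayesian fitting of sequencing counts obtained after protease digestion of designed mini-proteins. Unfolding free energy was derived by comparison with a sequence-predicted unfolded-state K50 and a shared folded-state K50, for each protease or both combined. The mini-proteins were under 80 residues, had no cysteine, were carried in a PA-tagged cDNA display construct, and were kept only if AlphaFold2 dimer inter-PAE exceeded 15.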

Data set [2] can be described thus: folding stability dG unfold from chymotrypsin proteolysis; higher = more stable. The method in brief:
as §1

Data set [3] in a line: folding stability dG unfold from trypsin proteolysis; higher = more stable. The method in brief: as §1

± gives the half width of the 95% confidence interval.

Take “SAGSAYRIEVYNPETGKKVEIFVFPNGEALVKEEDGFSKIYIDPSKPEQVEAIAKEIEPLGVEVKISPWSAG [r5_791_TrMRF]”: the “folding stability dG unfold” value in data set [1] turned out to be 1.35 ± 0.34 kcal/mol; in data set [2] it was 1.29 ± 0.29 kcal/mol; in data set [3] it was 1.4 ± 0.1 kcal/mol.

With “SAGSFKVTLELVLPNGEKLTVENPEDVLAAIKALPSNVTVRVSTPGESETISITGSDGSVFALKIERFKSAG [r5_506_TrMRF]”, the “folding stability dG unfold” value worked out at 1.85 ± 0.1 kcal/mol in data set [1], 1.97 ± 0.089 kcal/mol in data set [2] and 1.68 ± 0.045 kcal/mol in data set [3].

On to “SAGSIPLDIAKSLGGKTEVSSSPVPLGGGMTATLTTVTATLPDKIVTITITTLADPTVTEVTITTEPIKSAG [r5_323_JUSTAS]”, for which the “folding stability dG unfold” value in data set [1] turned out to be 1.14 ± 0.13 kcal/mol; in data set [2] it was 1.23 ± 0.039 kcal/mol; in data set [3], 1.04 ± 0.068 kcal/mol.

Consider “SAGSITIDGLTPDKEQEVKITVTLPLPGGGTVTLELTAKVTYDPATGLAKMPITLPDGTVLPLTLPLPESAG [r5_743_JUSTAS]”, for which the entries for the “folding stability dG unfold” value in data set [1], in data set [2] and in data set [3] were 2.1 ± 0.093 kcal/mol, 1.93 ± 0.074 kcal/mol and 2.21 ± 0.12 kcal/mol, respectively.

In the case of “SAGSKKYIPKEVTVYVLGTAPPDMSLEEALKNPNFAVSVPLKATVIYDPETKTARVLLPDGTVVEFPVPSAG [r5_701_TrMRF]”, the results for the “folding stability dG unfold” value in data set [1], in data set [2] and in data set [3] were 1.52 ± 0.1 kcal/mol, 1.44 ± 0.11 kcal/mol and 1.5 ± 0.049 kcal/mol, respectively.

As for “SAGSKVIMIPWEDAEKLIEDLPPGKNVTIHWMWPKGPYWTHTIEVKGDKIKIEPLPPNQFPGWRIMITKSAG [r5_85_TrROS]”, the results for the “folding stability dG unfold” value in data set [1], in data set [2] and in data set [3] were 1.65 ± 0.22 kcal/mol, 1.45 ± 0.17 kcal/mol and 1.86 ± 0.13 kcal/mol, respectively.

As to “SAGSMEELIANGGTISEERTLPGGEKVFTTTTLTYAPDGTPVINTETTVTTTPPDGTTTPSTSTSTVPLSAG [r5_24_JUSTAS]”, the results for the “folding stability dG unfold” value in data set [1], in data set [2] and in data set [3] were 1.04 ± 0.035 kcal/mol, 0.957 ± 0.058 kcal/mol and 1.04 ± 0.038 kcal/mol, respectively.

In the case of “SAGSMELLEKKEGKLPDGRVYTTETLRNPANGLYEVKTFVFEPGGNPLAEERITYEGDKLVSSETIYLGSAG [r14_828_JUSTAS]”, the “folding stability dG unfold” value in data set [1] came to 0.594 ± 0.077 kcal/mol; in data set [2], 0.842 ± 0.075 kcal/mol; in data set [3], 0.199 ± 0.04 kcal/mol.

For the sequence “SAGSMRITVEITFTSPEGVVKTKTVEVDLSSGSIDLSPEVIEAAKKELGLPPNVTVTLTVVEERPELESAGG [r19_287_JUSTAS]”, the “folding stability dG unfold” value worked out at 3.69 ± 0.11 kcal/mol in data set [1], 3.37 ± 0.11 kcal/mol in data set [2] and 4.06 ± 0.22 kcal/mol in data set [3].

Take “SAGSMTLESEDPSSGLRVTVTVEREPFLLPDGTRVLRRTVTTTVTTPDGEVLESEDVEVVAVLPPDAPLSAG [r5_871_JUSTAS]”: the “folding stability dG unfold” value in data set [1] was found to be 2.46 ± 0.077 kcal/mol; in data set [2] it was 2.43 ± 0.04 kcal/mol; in data set [3], 2.4 ± 0.085 kcal/mol.

For the sequence “SAGSMTPEEIRERIEALAEEVGEPPVRVLLKGPSGPLYELDVRFTPEHLEEARRALGVDVVEVEPVPESAGG [r19_50_JUSTAS]”, the results for the “folding stability dG unfold” value in data set [1], in data set [2] and in data set [3] were -0.00549 ± 0.17 kcal/mol, -0.512 ± 0.32 kcal/mol and 0.297 ± 0.068 kcal/mol, respectively.

On to “SAGSMVEERVRELLRELDPERPWEIERLPDGTIVARDPETGRWYIFKVEPDGTVTLERVLSLEEYERLSSAG [r5_852_JUSTAS]”, for which the “folding stability dG unfold” value in data set [1] was 4.42 ± 0.11 kcal/mol; in data set [2], 4.78 ± 0.076 kcal/mol; in data set [3], 3.37 ± 0.075 kcal/mol.

Turning to “SAGSNKPIKLKAIIEKPKEKKEIEIEIDPNESIESALKKILEKLEPEWKIVIELPNGIKIEFPPSKEMYSAG [r5_77_TrMRF]”, the entries for the “folding stability dG unfold” value in data set [1], in data set [2] and in data set [3] were 0.91 ± 0.15 kcal/mol, 0.0227 ± 0.18 kcal/mol and 1.37 ± 0.083 kcal/mol, respectively.

As for “SAGSNTIWYPFPLKEIKEAISSGQSMEEIADELSERHGEEVPIEYPNMKIRIYVPEPGPLYVRIEMTPDSAG [r5_343_TrROS]”, the “folding stability dG unfold” value amounted to 0.734 ± 0.14 kcal/mol in data set [1], 0.907 ± 0.098 kcal/mol in data set [2] and 0.519 ± 0.2 kcal/mol in data set [3].

With “SAGSPIEELAKKIAEPKYKEEKKPNLTIKVEIEVTVTTSVPVKLPNGEPAYKTTEVKIKVKLTINIPEGSAG [r5_297_JUSTAS]”, the “folding stability dG unfold” value was determined as 3.39 ± 0.46 kcal/mol in data set [1], 3.63 ± 0.48 kcal/mol in data set [2] and 3 ± 0.16 kcal/mol in data set [3].

Take “SAGSPSMVVTVRLTVTTTDPVTGTTTTTTLDIPVSPASLSTPPAQVAAALTAAAPATTIDVTVDSVLLSAGG [r19_189_JUSTAS]”: the “folding stability dG unfold” value was determined as 1.51 ± 0.037 kcal/mol in data set [1], 1.06 ± 0.06 kcal/mol in data set [2] and 1.794 ± 0.017 kcal/mol in data set [3].

On to “SAGSPVLATLRTYDPVAKKWTESVYPVSDPEALIAEVAAELGVEVEVDPATGVATAPLPDGRLVVVTVVSAG [r5_937_JUSTAS]”, for which the figures for the “folding stability dG unfold” value in data set [1], in data set [2] and in data set [3] were 1.45 ± 0.051 kcal/mol, 1.56 ± 0.014 kcal/mol and 1.2 ± 0.036 kcal/mol, respectively.

On to “SAGSPVTVPLTLTLTYTVNNPEGPEVLKTETIPLPLVFSPEELDDEETKALLQALVDALPDDVSEVVLESAG [r5_849_JUSTAS]”, for which the “folding stability dG unfold” value in data set [1] is 1.38 ± 0.046 kcal/mol; in data set [2], 1.43 ± 0.079 kcal/mol; in data set [3] it was 1.32 ± 0.02 kcal/mol.

Consider “SAGSSLPPSLSKEEIVAALKSQGYTSVKEEKLPDPNKSRMVFTHPNSVVTVEFFPNSVTVTTVPLSVPSSAG [r5_899_JUSTAS]”, for which the “folding stability dG unfold” value in data set [1] was 0.968 ± 0.23 kcal/mol; in data set [2], 1.32 ± 0.16 kcal/mol; in data set [3], 0.0126 ± 0.28 kcal/mol.

Consider “SAGSSMSSTVRVEVTLTNPVTEVSPDGKTYTTPGDTVAVPVLINVSTTTYYNSSNPSDVVTETTTTVALSAG [r14_274_JUSTAS]”, for which the “folding stability dG unfold” value in data set [1] was determined as 1.18 ± 0.09 kcal/mol; in data set [2], 1.22 ± 0.19 kcal/mol; in data set [3] it was 1.07 ± 0.026 kcal/mol.

Consider “SAGSSPSLVLKVEIPVEIKEKRKFLLPNGETKTELTTRTITHTIVVEAGTDPAKLEEALALAEEIKEKKSAG [r14_830_JUSTAS]”, for which the figures for the “folding stability dG unfold” value in data set [1], in data set [2] and in data set [3] were -0.276 ± 0.25 kcal/mol, 0.00535 ± 0.31 kcal/mol and -0.85 ± 0.57 kcal/mol, respectively.

As for “SAGSSVSVSYDPNNPDKMTITITDPANGTQVSAVTAPVYKRPDGTIVVPLTITFPASGKVTTKTFTIPASAG [r5_610_JUSTAS]”, the figures for the “folding stability dG unfold” value in data set [1], in data set [2] and in data set [3] were 1.22 ± 0.059 kcal/mol, 1.13 ± 0.09 kcal/mol and 1.22 ± 0.019 kcal/mol, respectively.

Take “SAGSTAELVGHPDGVELRTELRGEELVFVLPAPKDVLVVAYDPATGALVLGVPVGDRVLVLVRPPPHPSAGG [r19_384_TrMRF]”: the “folding stability dG unfold” value came out at 3.53 ± 0.23 kcal/mol in data set [1], 3.88 ± 0.099 kcal/mol in data set [2] and 2.54 ± 0.079 kcal/mol in data set [3].

For the sequence “SAGSVTSVEVKEKGEVTVTTETLNIDGKPYTVVSTTTPLLDPEGNVTYTTTTTVYDPNGNKISTTPTSLSAG [r14_465_JUSTAS]”, the results for the “folding stability dG unfold” value in data set [1], in data set [2] and in data set [3] were 1.84 ± 0.051 kcal/mol, 2.14 ± 0.032 kcal/mol and 1.33 ± 0.033 kcal/mol, respectively.

As for “SAGTADELVERAKEFARELAEEFGYKVDVDVKVQPTPDYYTIKVTVTFRNPGGMTWRFPFTITIPKEQFSAG [r5_609_TrROS]”, the “folding stability dG unfold” value in data set [1] was determined as 4.29 ± 0.16 kcal/mol; in data set [2], 4.91 ± 0.14 kcal/mol; in data set [3], 3.45 ± 0.15 kcal/mol.

With “SAGTAEEAKELARFFARELAPRNGMDVEIPDIKVETDPENGWIRITVEITFRWPHGRKQKHPFTIQIPVSAG [r5_381_TrROS]”, the results for the “folding stability dG unfold” value in data set [1], in data set [2] and in data set [3] were 1.47 ± 0.063 kcal/mol, 1.25 ± 0.096 kcal/mol and 1.48 ± 0.047 kcal/mol, respectively.

“SAGTEEELVERAKELARELAEELGVEAEAEVTVDPLPDVLVVNLTVRLRLPGGETVELPLTLTFPREFLSAG [r5_609_TrMRF]”: the “folding stability dG unfold” value in data set [1] is 3.08 ± 0.05 kcal/mol; in data set [2], 3.3 ± 0.035 kcal/mol; in data set [3] it was 2.71 ± 0.095 kcal/mol.

The values are drawn from the supplement of paper PMC12764529.
